{"source": "patent US20180305451A1", "about": "(COMPUGEN, published 2018)", "key": {"[1]": {"biological_target": "T1, HIDE1_HH-1 (Human ECD + human IgG1 Fc mutated C220S at hinge), without SP (human)", "T1 construct": "Batch #280 in the Serotec and phage display work; also called HIDE1 hECD-hIg; HIDE1 (H:H) recombinant Fc fusion protein", "T1 sequence (chain, as listed by the source C220S C220S limits assumed)": "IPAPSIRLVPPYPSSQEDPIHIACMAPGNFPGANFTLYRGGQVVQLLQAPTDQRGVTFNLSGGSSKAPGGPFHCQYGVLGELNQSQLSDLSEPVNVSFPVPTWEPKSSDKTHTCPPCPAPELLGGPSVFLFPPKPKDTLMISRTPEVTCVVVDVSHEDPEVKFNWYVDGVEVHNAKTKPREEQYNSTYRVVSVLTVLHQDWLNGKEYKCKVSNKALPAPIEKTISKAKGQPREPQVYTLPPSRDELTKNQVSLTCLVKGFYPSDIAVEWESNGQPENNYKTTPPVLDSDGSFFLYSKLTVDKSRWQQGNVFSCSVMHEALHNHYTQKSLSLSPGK", "assay": "SPR (ProteOn XPR 36): HIDE1-HH-1 captured on goat anti-human Fc GLC chip, Fab periplasmic extract injected 2 min, undiluted and 3-fold dilutions, 10 min dissociation", "procedure": "A high density goat anti-human Fc antibody (Invitrogen) was immobilized by standard amine coupling over all lanes of a GLC chip using a ProteOn XPR 36 biosensor (Biorad). This surface was used to capture the recombinant HIDE1-H:H fusion protein (GenScript Lot 393383-21, batch #280) or a control Fc fusion protein (CD155, Sino Biologicals) in the vertical flow-cell direction at a concentration of ˜0.5 μg/mL for 90 seconds.\nEach anti-HIDE1 Fab PPE sample was then injected at three concentrations (undiluted fab supernatant and two three-fold serial dilutions) in the horizontal direction over the captured fusion proteins. The dilutions were made using degassed PBS with 0.05% Tween 20 and 0.01% BSA. PPEs were injected for two minutes followed by 10 minutes of dissociation at a flow rate of 50 μL/min. The starting concentration range for each Fab is recorded in Table 39. The anti-human fc capture surfaces were regenerated with two 30-second pulses of 146 mM phosphoric acid after each cycle."}, "human HIDE1 [2]": {"biological_target": "T2, human HIDE1 (human, UniProt A8MVS5 20-230)", "T2 construct": "Endogenous on U937, HL-60, THP-1 cells, blood monocytes, AML blasts and dendritic cells; also called C19orf38; hHIDE1", "T2 sequence": "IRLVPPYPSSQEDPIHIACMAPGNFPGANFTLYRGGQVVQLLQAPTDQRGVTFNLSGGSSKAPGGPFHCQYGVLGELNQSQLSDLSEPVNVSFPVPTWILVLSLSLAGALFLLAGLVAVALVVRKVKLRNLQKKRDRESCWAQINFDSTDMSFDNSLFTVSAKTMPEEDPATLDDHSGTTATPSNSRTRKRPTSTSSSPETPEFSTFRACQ", "assay": "FACS, HL-60 cells"}, "human HIDE1 [3]": {"biological_target": "T2, human HIDE1", "assay": "FACS, THP1 cells transfected with HIDE1 siRNA, AF647 conjugate", "procedure": "Confirmation of HIDE1 endogenous expression was also tested in THP1 cells transfected with HIDE1 siRNA as described in M&M section. Analysis of human HIDE1 membrane expression in the siRNA transfected cells was performed by FACS. As shown in FIG. 31 membrane expressions of human HIDE1 protein is reduced in cells transfected with HIDE1 siRNA (green) as compared to cells transfected with scrambled siRNA (orange)."}, "human HIDE1 [4]": {"biological_target": "T2, human HIDE1", "assay": "FACS, U937 cells"}, "human HIDE1 [5]": {"biological_target": "T2, human HIDE1", "assay": "FACS, U937 cells transfected with scrambled siRNA"}, "human HIDE1 [6]": {"biological_target": "T2, human HIDE1", "assay": "FACS, HL-60 cells transfected with scrambled siRNA"}, "human HIDE1 [7]": {"biological_target": "T2, human HIDE1", "assay": "FACS, THP1 cells"}, "human HIDE1 [8]": {"biological_target": "T2, human HIDE1", "assay": "FACS, HL-60 cells transfected with HIDE1 siRNA"}, "mouse HIDE1 Flag [9]": {"biological_target": "T3, mouse HIDE1 Flag (mouse, UniProt Q75VT8 22-222)", "T3 construct": "Over-expressed on HEK293 and EL4 cells (pMSCV); whole cell extracts in WB; also called mHIDE1 flag; not shown: Flag tag", "T3 sequence": "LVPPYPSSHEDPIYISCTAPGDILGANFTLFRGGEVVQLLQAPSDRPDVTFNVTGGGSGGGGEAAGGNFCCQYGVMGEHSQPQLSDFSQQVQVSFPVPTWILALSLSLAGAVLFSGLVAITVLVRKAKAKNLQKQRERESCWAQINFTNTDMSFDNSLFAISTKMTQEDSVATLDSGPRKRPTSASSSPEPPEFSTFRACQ", "assay": "Western blot of whole cell extracts, goat anti-mouse HRP"}, "human HIDE1 [10]": {"biological_target": "T2, human HIDE1", "assay": "FACS, U937 cells transfected with HIDE1 siRNA"}, "human HIDE1 [11]": {"biological_target": "T2, human HIDE1", "assay": "FACS, CD14+ cells of human PBMCs, Alexa 647 conjugate", "procedure": "The following antibodies were used. […] Brilliant violet 510 labeled anti-CD3 (Biolegend, cat. 344828), PE-labeled anti-CD14 (Biolegend, cat. 301806) and PercP-labeled anti-CD19 (Biolegend, cat. 302228).\nPBMCs cells were thawed and stained with viability dye (BD Horizon; Cat#562247, BD biosciences), washed and pre-blocked with Fc blocking solution (cat#422302, Biolegend; 1:20) and/or human Ig Fc (Jackson; 200 μg/ml; cat#009-000-008) to avoid nonspecific binding via Fc receptors. Cells were then stained with anti-hHIDE1 mAbs or mIgG1 isotype control in the presence or absence of lymphocytes or monocytes surface marker. All samples were run on a MACSQuant analyzer (Miltenyi) and data was analyzed using Tree Star FlowJo software. Cells were first gated for lymphocytes or monocyte (FSC-A vs. SSC-A), and further gated for live cells before analyzed for HIDE1 expression by flow cytometry."}, "mouse HIDE1 Flag [12]": {"biological_target": "T3, mouse HIDE1 Flag", "assay": "Western blot of whole cell extracts, goat anti-mouse HRP", "remark": "listed apart in the source"}, "human HIDE1-flag": {"biological_target": "T4, human HIDE1-flag (human, UniProt A8MVS5 20-230)", "T4 construct": "Over-expressed on HEK293, SK-MEL-5, CHO-S and CHO-S OKT3 cells (pMSCV or pcDNA3.1); whole cell extracts in WB; Entry includes the signal peptide; also called hHIDE1 Flag", "T4 sequence": "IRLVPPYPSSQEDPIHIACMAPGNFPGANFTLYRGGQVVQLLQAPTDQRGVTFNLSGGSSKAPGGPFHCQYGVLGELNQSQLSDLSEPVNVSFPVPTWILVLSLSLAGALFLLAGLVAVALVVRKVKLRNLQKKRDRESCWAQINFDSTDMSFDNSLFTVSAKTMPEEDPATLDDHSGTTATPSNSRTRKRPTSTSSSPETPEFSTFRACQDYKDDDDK", "assay": "FACS, HEK293 human HIDE1 Flag cells vs HEK293 empty vector, goat anti-human IgG F(ab')2-PE"}, "[13]": {"biological_target": "T1, HIDE1_HH-1 (Human ECD + human IgG1 Fc …)", "assay": "BLI Octet RED384, bivalent Fab-A-FH"}}, "note": "Read-outs that look alike come from different tables or passages of the source."}
{"binder": "B09 S404-01.C08 (Fab, V domains shown, Fab form of CPA.12.012 (IgG4 form is m55); complex kinetics; copies: 1 + 1) VH: QVQLVESGGGVVQPGRSLRLSCAASGFTFSSYAMHWVRQAPGKGLEWVAVISYDGSNKYYADSVKGRFTISRDNSKNTLYLQMNSLRAEDTAVYYCARSSGSSWSNIAYWGQGTLVTVSS VL: QSVLTQPPSVSGAPGQRVTISCIGSSSNIGAGYDVHWYRQLPGTAPKLLIYDNTNRPSGVPDRFSASKSGISASLAITGLQAEDEADYYCQSYDSNLSGVFGGGTQLTVL", "values": [{"measurement": "binding result", "setting": "[1]", "value": "binds"}]}
{"binder": "Mouse anti human HIDE1 mAb (Biotem #33B4-2F7) (antibody, mouse IgG1, kappa, V domains shown, Mouse IgG1; also called Ab-364) VH: QIQLVQSGPELKKPGETVKISCKASGYTFTNYGMNWVKQAPGKGLKWMGWINTYTGEPTYADDFKGRFAFSLETPASTAYLQINNLKNEDMATYFCVREHFYALDYWGQGTSVTVSS VL: KIVLTQSPASLAVSLRQRATISCRASESVDSYGNSFMHWYQQKPGQPPKLLIYRASNLESGVPARFSGSGSRTDFTLTIDPVEADDAATYYCQQSNEDPRTFGGGTKLEIKR", "values": [{"measurement": "FACS (fold change from isotype)", "setting": "human HIDE1 [2]", "value": 4, "unit": "fold"}, {"measurement": "fold change (anti HIDE1 vs. isotype control)", "setting": "human HIDE1 [3]", "value": 1.9, "unit": "fold"}, {"measurement": "FACS (fold change from isotype)", "setting": "human HIDE1 [4]", "value": 14, "unit": "fold"}, {"measurement": "fold change (anti HIDE1 vs. isotype control)", "setting": "human HIDE1 [5]", "value": 17.7, "unit": "fold"}, {"measurement": "fold change (anti HIDE1 vs. isotype control)", "setting": "human HIDE1 [6]", "value": 5.2, "unit": "fold"}, {"measurement": "FACS (fold change from isotype)", "setting": "human HIDE1 [7]", "value": 3, "unit": "fold"}, {"measurement": "fold change (anti HIDE1 vs. isotype control)", "setting": "human HIDE1 [8]", "value": 3, "unit": "fold"}, {"measurement": "binding result", "setting": "mouse HIDE1 Flag [9]", "value": "no binding (tested: 2 µg/ml)"}, {"measurement": "fold change (anti HIDE1 vs. isotype control)", "setting": "human HIDE1 [10]", "value": 7, "unit": "fold"}, {"measurement": "staining, folds over isotype control", "setting": "human HIDE1 [11]", "value": "~3", "unit": "fold"}]}
{"binder": "Mouse anti human HIDE1 mAb (Biotem #39A7-3A10-3G8) (antibody, mouse IgG1, kappa, V domains shown, Mouse IgG1; also called 39A7-39A10-3G8) VH: QVQLQQSGAELVRPGASVKLSCKALGYTFTDYEMHWVKQTPVHGLEWIGDIYPGSGGTAYNQKFKGKATLTADKSSSTAYMELSSLTSEDSAVYYCTRKGRSFAYWGQGTLVTVSA VL: NIVMTQSPKSMSMSVGERVTLSCKASENVDTYVSWYQQKPEQSPKLLIYGASNRYTGVPDRFTGSGSATDFTLIISSVQAEDLADYHCGQSYRYPLTFGAGTKLELKR", "values": [{"measurement": "binding result", "setting": "mouse HIDE1 Flag [12]", "value": "no binding (tested: 2 µg/ml)"}]}
{"binder": "αhHIDE1_AbD25753.1_Ser_Fab (Fab, Serotec HuCAL Fab-A-FH) heavy: EVQLVQSGAEVKKPGESLKISCKGSGYSFTNYWIHWVRQMPGKGLEWMGIIDPGNSFTRYSPSFQGQVTISADKSISTAYLQWSSLKASDTAMYYCARGDGLYGGSDGYSMGGFDNWGQGTLVTVSSASTKGPSVFPLAPSSKSTSGGTAALGCLVKDYFPEPVTVSWNSGALTSGVHTFPAVLQSSGLYSLSSVVTVPSSSLGTQTYICNVNHKPSNTKVDKKVEPKSEFKAEMPVLENRAAQGDITTPGGARRLTGDQTAALRDSLSDKPAKNIILLIGDGMGDSEITAARNYAEGAGGFFKGIDALPLTGQYTHYALNRKTGKPDYVTSSAASATAWSTGVKTYNGALGVDIHEKDHPTILEMAKAAGLATGNVSTAELQDATPAALVAHVTSRKCYGPSATSEKCPGNALEKGGKGSITEQLLNARADVTLGGGAKTFAETATAGEWQGKTLREQAQARGYQLVSDAASLNSVTEANQQKPLLGLFADGNMPVRWLGPKATYHGNIDKPAVTCTPNPQRNDSVPTLAQMTDKAIELLSKNEKGFFLQVEGASIDKQDHAANPCGQIGETVDLDEAVQRALEFAKKEGNTLVIVTADHAHASQIVAPDTKAPGLTQALNTKDGAVMVMSYGNSEEDSQEHTGSQLRIAAYGPHAANVVGLTDQTDLFYTMKAALGLKGAPDYKDDDDKGAPHHHHHH light: not shown", "values": [{"measurement": "FACS analysis (GeoMean fold) human HIDE1/empty vector", "setting": "human HIDE1-flag", "value": 150, "unit": "fold"}, {"measurement": "Kd", "setting": "[13]", "value": 0.07, "unit": "nM"}, {"measurement": "koff", "setting": "[13]", "value": "4.45e-05", "unit": "s⁻¹"}]}
{"binder": "αhHIDE1_AbD25754.1_Ser_Fab (Fab, Fab-A-FH format: the Fd chain carries bacterial alkaline phosphatase (which dimerises it, making the Fab bivalent), then FLAG and His6; all of these are in the letters., Serotec HuCAL Fab-A-FH; also called Ab332) heavy: QVQLVQSGAEVKKPGASVKVSCKASGYTFSGYGMHWVRQAPGQGLEWMGIISPSNGNTNYAQKFQGRVTMTRDTSISTAYMELSRLRSEDTAVYYCAREVYYGLDVWGQGTLVTVSSASTKGPSVFPLAPSSKSTSGGTAALGCLVKDYFPEPVTVSWNSGALTSGVHTFPAVLQSSGLYSLSSVVTVPSSSLGTQTYICNVNHKPSNTKVDKKVEPKSEFKAEMPVLENRAAQGDITTPGGARRLTGDQTAALRDSLSDKPAKNIILLIGDGMGDSEITAARNYAEGAGGFFKGIDALPLTGQYTHYALNRKTGKPDYVTSSAASATAWSTGVKTYNGALGVDIHEKDHPTILEMAKAAGLATGNVSTAELQDATPAALVAHVTSRKCYGPSATSEKCPGNALEKGGKGSITEQLLNARADVTLGGGAKTFAETATAGEWQGKTLREQAQARGYQLVSDAASLNSVTEANQQKPLLGLFADGNMPVRWLGPKATYHGNIDKPAVTCTPNPQRNDSVPTLAQMTDKAIELLSKNEKGFFLQVEGASIDKQDHAANPCGQIGETVDLDEAVQRALEFAKKEGNTLVIVTADHAHASQIVAPDTKAPGLTQALNTKDGAVMVMSYGNSEEDSQEHTGSQLRIAAYGPHAANVVGLTDQTDLFYTMKAALGLKGAPDYKDDDDKGAPHHHHHH light: not shown", "values": [{"measurement": "FACS analysis (GeoMean fold) human HIDE1/empty vector", "setting": "human HIDE1-flag", "value": 145, "unit": "fold"}, {"measurement": "Kd", "setting": "[13]", "value": 0.1, "unit": "nM"}, {"measurement": "koff", "setting": "[13]", "value": "6.09e-05", "unit": "s⁻¹"}]}
